Source: patent publication US20260258124A1 (CIMEIO THERAPEUTICS, published 2026)
Numbering of substitutions follows the chain as printed.

B1: Dufour (antibody, V domains shown)
VH: QVQLVQSGAEVKKPGASVKVSCKASGYTFTSYNMHWVRQAPGQGLEWMGVIYSGNGDTSYNQKFKGRVTMTTDTSTSTAYMELRSLTSDDTAVYYCARERDTRFGNWGQGTLVTVSA
VL: EIVLTQSPSSLSASVGDRVTITCRASESVDIYGNSFMHWYQQKPGKAPKLLIYLASNLESGVPSRFSGSGSGTDFTLTISSLQPEDFATYYCQQNNEDPYTFGQGTKLEIK
notes: IgG; also called VH1/VL1; HC1 LC1
B2: Allalinhorn (antibody, V domains shown)
VH: B1 VH
VL: EIVLTQSPSSLSASVGDRVTITCRASESVDIYGESFMHWYQQKPGKAPKLLIYLASNLESGVPSRFSGSGSGTDFTLTISSLQPEDFATYYCQQNKEEPYTFGQGTKLEIKR
notes: IgG; also called VH1/VL1.19; Allaninhorn
B3: Piz Bernina (antibody, V domains shown)
VH: B1 VH
VL: B2 VL with K96N
notes: IgG; also called VH1/VL1.17
B4: Piz Morteratsch (antibody, V domains shown)
VH: B1 VH with N55Q
VL: B1 VL with N34E, L54Q, N96R, D98E
notes: IgG; also called VH1.4/VL1.33
B5: Bietschhorn (antibody, V domains shown)
VH: B1 VH
VL: B2 VL with K96R
notes: IgG; also called VH1/VL1.29
B6: Piz Zupo (antibody, V domains shown)
VH: B1 VH
VL: B2 VL with E34Q
notes: IgG; also called VH1/VL1.25
B7: Piz Roseg (antibody, V domains shown)
VH: B1 VH
VL: B2 VL with E34S, L54K
notes: IgG; also called VH1/VL1.28
B8: Piz Palü (antibody, V domains shown)
VH: B1 VH with N55Q
VL: B1 VL with N34E, L54H, N96R, D98E
notes: IgG; also called VH1.4/VL1.30
B9: Nesthorn (antibody, V domains shown)
VH: B1 VH with N55Q
VL: B1 VL with N34E, L54E, N96R, D98E
notes: IgG; also called VH1.4/VL1.31
B10: Balmhorn (antibody, V domains shown)
VH: B1 VH with N55Q
VL: B2 VL
notes: IgG; also called VH1.4/VL1.19
B11: Eiger (antibody, V domains shown)
VH: B1 VH
VL: B2 VL with E34S
notes: IgG; also called VH1/VL1.26
B12: Piz Argient (antibody, V domains shown)
VH: B1 VH
VL: B2 VL with E34H
notes: IgG; also called VH1/VL1.27
B13: Dreieckhorn (antibody, V domains shown)
VH: B1 VH with N55Q
VL: B1 VL with N34E, L54S, N96R, D98E
notes: IgG; also called VH1.4/VL1.32
B14: NegCtrl (antibody, V domains shown)
VH: QVQLQQSGPGLVKPSQTLSLTCAISGDSVSSNSAAWSWIRQSPGRGLEWLGRIYYRSKWYNDYAVSVKSRITINPDTSKNQFSLQLNSVTPEDTAVYYCARLDHRYHEDTVYPGMDVWGQGTLVTVSS
VL: DIELTQPPSVSVAPGQTARISCSGDNLPAYTVTWYQQKPGQAPVLVIYDDSDRPSGIPERFSGSNSGNTATLTISGTQAEDEADYYCASWDPSSGVVFGGGTKLTVL
notes: also called NegCtrl antibody (anti-chicken lysozyme); NegCtrt

Tests used:
[1] = target: T1, CD117 on wild-type cells (TF-1 cells, HSPCs, HSCs) (human, UniProt P10721 26-976); assay: cell-based or functional assay
[2] = target: T1, CD117 on wild-type cells (TF-1 cells, …); assay: cell-based or functional assay; remark: listed apart in the source
[3] = target: T2, human recombinant CD117 (c-Kit) from Sino Biological (Catalog No. 11996-H08H) (human, UniProt P10721 26-524); assay: BLI Octet, set-up as in Example 2
T2 construct: also called soluble antigen
Method: (§1) In the main experiment kinetic assays were performed by first capturing IgG using anti-human Fc biosensors. The mAb capture biosensors were then submerged in wells containing different concentrations of antigen (association stage) followed by a dissociation step in running buffer. To allow for double reference correction, IgG-captured sensors were dipped into wells containing only buffer and blank sensors were also dipped into wells containing the antigen. This referencing provided a means of compensating for both the natural dissociation of the capture IgG and non-specific binding of the antigen to the sensor surface. Steps were performed at 25° C. at a constant shaking of 1000 rpm. New sensors were used for each sample. Dissociation rate constants (Kd) were calculated using the ForteBio Data Analysis software. All consumables used were those recommended by ForteBio.
(§2) All samples were diluted in freshly prepared running buffer. Antibody variants were immobilized onto the surface of a series of biosensors using the capture methods described. Antigen was passed over the surface to generate a binding response. Binding data for the IgG:antigen interactions were collected at 25° C. on the biosensors. A dilution series of the antigen was used in the association step, in order to fit results globally and get the best values for ka, kd, and KD. The response data for the binding of antigen to the surface immobilized IgG were fitted to a 1:1 binding model. HC0 LC0 refers to murine SR-1.

[4] = target: T2, human recombinant CD117 (c-Kit) from …; assay: BLI Octet, IgG on anti-human Fc sensor, soluble CD117, 1:1 fit
Method: (§3) IgG antibodies were immobilized on biosensors using suitable capture surfaces and binding of soluble antigen to immobilized antibodies was monitored by BLI (Octet). The resulting sensorgrams were analyzed using the supplied software (Fortebio). As antigen human recombinant CD117 (c-Kit) from Sino Biological was used (Catalog No. 11996-H08H, Lot #LC14SE0812). As a pre-experiment a series of experiments was performed to optimize assay parameters. The following parameters were selected:
as §1, §2

[5] = target: T1, CD117 on wild-type cells (TF-1 cells, …); assay: flow cytometry on TF-1 wild-type cells, Fc receptors blocked, goat anti-human IgG Alexa Fluor 488 as secondary antibody
Method: Binding of the antibodies of the present disclosure to CD117 on TF-1 cells was measured. TF-1 wild-type cells were seeded at a concentration of 100,000 cells/well. A Fc receptor blocking was performed using 25 μL TruStain FcX (BioLegend) for 15 min. Next cells are treated with various concentrations of the antibodies to be tested (0.0001-5 μg/ml). After additional 30 min cells were washed, then a secondary antibody was added to the cells (IgG (H+L) Cross-Adsorbed Goat anti-Human, Alexa Fluor® 488). After 30 min and two additional wash steps a live dead staining via 7AAD (7-aminoactinomycin D) was performed using 0.5 μg/mL 7AAD for 10 min before analyzing cells in a flow cytometer.

[6] = target: T2, human recombinant CD117 (c-Kit) from …; assay: BLI Octet, set-up as in Example 2; remark: listed apart in the source
Method: as §3, §1

T1 sequence (P10721 26-976 limits assumed): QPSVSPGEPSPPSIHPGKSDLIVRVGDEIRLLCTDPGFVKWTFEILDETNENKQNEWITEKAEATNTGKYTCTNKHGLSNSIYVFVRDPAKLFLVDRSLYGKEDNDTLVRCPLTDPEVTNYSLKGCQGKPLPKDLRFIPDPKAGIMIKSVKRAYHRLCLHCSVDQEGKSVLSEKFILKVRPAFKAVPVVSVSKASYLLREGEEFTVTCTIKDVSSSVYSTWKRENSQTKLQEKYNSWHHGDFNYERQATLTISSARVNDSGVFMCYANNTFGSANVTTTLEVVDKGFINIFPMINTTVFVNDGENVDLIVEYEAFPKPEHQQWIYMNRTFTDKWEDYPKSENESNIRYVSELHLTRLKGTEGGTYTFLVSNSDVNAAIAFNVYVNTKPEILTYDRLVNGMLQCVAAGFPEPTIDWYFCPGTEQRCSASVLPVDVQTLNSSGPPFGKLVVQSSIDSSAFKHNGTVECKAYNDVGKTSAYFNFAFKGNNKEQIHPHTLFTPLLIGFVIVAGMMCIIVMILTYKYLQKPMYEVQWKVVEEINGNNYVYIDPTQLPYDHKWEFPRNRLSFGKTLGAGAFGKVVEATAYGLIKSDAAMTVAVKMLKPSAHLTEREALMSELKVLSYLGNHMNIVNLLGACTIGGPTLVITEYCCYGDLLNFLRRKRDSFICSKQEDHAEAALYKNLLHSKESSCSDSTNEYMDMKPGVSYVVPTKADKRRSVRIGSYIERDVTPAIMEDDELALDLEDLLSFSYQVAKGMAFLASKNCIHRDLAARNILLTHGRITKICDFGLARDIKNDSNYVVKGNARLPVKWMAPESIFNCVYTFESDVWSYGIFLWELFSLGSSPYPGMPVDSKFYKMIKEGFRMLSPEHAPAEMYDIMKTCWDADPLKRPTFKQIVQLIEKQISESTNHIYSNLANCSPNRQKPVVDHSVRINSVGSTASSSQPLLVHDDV
T2 sequence (P10721 26-524 limits assumed): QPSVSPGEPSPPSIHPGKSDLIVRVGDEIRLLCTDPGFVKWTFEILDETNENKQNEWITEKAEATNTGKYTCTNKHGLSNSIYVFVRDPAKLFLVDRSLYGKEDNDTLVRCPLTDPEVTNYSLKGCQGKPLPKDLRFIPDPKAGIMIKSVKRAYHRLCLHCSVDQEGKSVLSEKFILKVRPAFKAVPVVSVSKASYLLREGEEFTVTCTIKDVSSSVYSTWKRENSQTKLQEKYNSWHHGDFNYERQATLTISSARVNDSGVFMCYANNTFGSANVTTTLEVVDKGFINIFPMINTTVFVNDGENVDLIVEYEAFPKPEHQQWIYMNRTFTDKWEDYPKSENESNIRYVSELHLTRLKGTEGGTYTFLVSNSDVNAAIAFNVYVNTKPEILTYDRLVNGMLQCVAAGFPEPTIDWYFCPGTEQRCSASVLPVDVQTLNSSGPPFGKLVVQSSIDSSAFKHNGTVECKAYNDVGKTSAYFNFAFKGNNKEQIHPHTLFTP

Binder	IC50, inhibition of SCF-dependent proliferation of CD34-positive HSPCs (CellTiter-Glo) [1] [µg/mL]	IC50, inhibition of SCF-dependent proliferation of TF-1 cells (CellTiter-Glo), Average [2] [µg/mL]	IC50, inhibition of SCF-dependent proliferation of TF-1 cells (CellTiter-Glo), Experiment #1 [2] [µg/mL]	IC50, inhibition of SCF-dependent proliferation of TF-1 cells (CellTiter-Glo), Experiment #2 [2] [µg/mL]	Kd [3] [nM]	Kd [4] [nM]	koff [4] [s⁻¹]	kon [4] [M⁻¹ s⁻¹]	EC50 (read off the curve) [5] [µg/mL]	binding result [6]	binding result [5]
B1	0.0949	0.22	0.12	0.321	0.4	0.79	0.000397	503000	–	–	–
B2	0.0313	0.0441	0.0415	0.0467	0.45	–	–	–	~0.02	–	–
B3	0.00521	0.0176	0.0122	0.0231	0.19	–	–	–	~0.02	–	–
B4	–	–	–	–	–	–	–	–	–	binds	–
B5	0.0842	0.151	0.0455	0.256	1.1	–	–	–	~0.04	–	–
B6	0.114	> 0.5	> 0.5	> 0.5	1.1	–	–	–	–	–	–
B7	> 10	> 0.5	> 0.5	> 0.5	8.3	–	–	–	~0.2	–	–
B8	–	–	–	–	–	–	–	–	–	binds	–
B9	–	–	–	–	–	–	–	–	–	binds	–
B10	–	–	–	–	–	–	–	–	–	binds	–
B11	0.594	> 0.5	> 0.5	> 0.5	1.6	–	–	–	–	–	–
B12	> 10	> 0.5	> 0.5	> 0.5	3.3	–	–	–	~0.1	–	–
B13	–	–	–	–	–	–	–	–	–	binds	–
B14	> 10	> 0.5	> 0.5	> 0.5	–	–	–	–	–	–	no binding (tested: 5 ug/ml)
